Among the data in patent US20220403013A1 are Kd values, retold here.

For the test, the target named is malondialdehyde-modified LDL (MDA-LDL), human (human) (UniProt P04114). Description: ELISA, MDA-LDL immobilised on plate, antibody titrated (0.01-50 µg/ml), HRP anti-human IgG detection.

One may read the Kd as a measure of binding affinity in units of concentration. A lower Kd goes with higher affinity.

For the substance orticumab (antibody), the Kd was found to be 8 nM.
